According to publication PMC7979937, “Crystal structures of human MGST2 reveal synchronized conformational changes regulating catalysis” (Nature Communications, 2021):

Target: the molecule itself
Experiment: crystal structure; crystals grown in lipidic cubic phase (8.8 MAG for apo, 9.9 MAG for GSH and GSO3- complexes), protein at 30 mg/ml, 20 °C; apo, with 7 mM GSH, with 7 mM GSO3-; homo-trimer

B1: Microsomal glutathione S-transferase 2 (human) (enzyme)
chain: not shown
notes: Microsomal glutathione S-transferase 2 (MGST2), human; cDNA from IMAGE clone 5277851 cloned in pPICZA; Integral membrane protein, homo-trimer in the crystals; The terminal ends are disordered in the crystal structures; also called MGST2; apo-MGST2; source: Pichia pastoris KM71H, purified (Ni-Sepharose, S-hexylglutathione agarose, SEC) in DDM
  stoichiometry N: 3
